Experimental findings from paper PMC2592692 are described below.

Residue numbers refer to the chain shown, from its start. In names and notes the source's numbering stands.

In assay [1] the target is microtubules (purified tubulin, polymerised in buffer). Put plainly: TIRF of Eg5-GFP on immobilised GMPCPP microtubules. The following applies: reference: wild-type Eg5-GFP, Cdk1-treated; sites T937.
In assay [2] the target is Alexa-568 labeled microtubules (paclitaxel-stabilised) (UniProt P02550).
UniProt P02550, sequence (P02550 whole entry, looked up): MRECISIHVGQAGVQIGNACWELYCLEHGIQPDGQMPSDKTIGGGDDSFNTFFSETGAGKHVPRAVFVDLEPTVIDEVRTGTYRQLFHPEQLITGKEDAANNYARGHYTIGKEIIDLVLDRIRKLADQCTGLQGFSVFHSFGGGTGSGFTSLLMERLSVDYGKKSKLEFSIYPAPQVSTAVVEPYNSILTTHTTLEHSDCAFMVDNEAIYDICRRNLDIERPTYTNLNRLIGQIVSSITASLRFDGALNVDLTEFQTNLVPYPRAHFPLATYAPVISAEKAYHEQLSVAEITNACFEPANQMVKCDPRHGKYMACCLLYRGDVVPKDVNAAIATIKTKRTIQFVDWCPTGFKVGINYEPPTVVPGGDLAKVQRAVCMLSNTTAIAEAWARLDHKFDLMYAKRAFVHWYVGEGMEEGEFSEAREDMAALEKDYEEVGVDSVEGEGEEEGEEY
Assay [3] deals with spindle microtubules in Xenopus egg extract (Xenopus laevis (endogenous in egg extract)). Put plainly: fluorescence microscopy of fixed spindles (GFP intensity per TAMRA-tubulin intensity); endogenous Eg5 immunodepleted from Xenopus egg extract and replaced by recombinant Eg5-GFP constructs; spindle structures fixed after 45 min, spun onto coverslips; ratios normalised to 1 at 460 nM Eg5-GFP.

As to Eg5 1-1067 Eg5T937A-GFP, Cdk1-treated, in assay [1], the “other: mean GFP intensity on microtubules at 15 nM Eg5” value is recorded as “weaker; reference 1226±39”.

B1: Eg5 phosphorylated at threonine 937 by Cdk1/cyclin B in vitro (natural protein)
chain: MSSQNSFMASKKEDKGKNIQVVVRCRPFNQLERKASSHSVLECDSQRKEVYVRTGEVNDKLGKKTYTFDMVFGPAAKQIEVYRSVVCPILDEVIMGYNCTIFAYGQTGTGKTFTMEGERSSDEEFTWEQDPLAGIIPRTLHQIFEKLSENGTEFSVKVSLLEIYNEELFDLLSPSPDVGERLQMFDDPRNKRGVIIKGLEEISVHNKDEVYHILERGAARRKTASTLMNAYSSRSHSVFSVTIHMKETTVDGEELVKIGKLNLVDLAGSENIGRSGAVDKRAREAGNINQSLLTLGRVITALVERTPHIPYRESKLTRILQDSLGGRTKTSIIATVSPASINLEETVSTLDYANRAKSIMNKPEVNQKLTKKALIKEYTEEIERLKRELAAAREKNGVYLSSENYEQLQGKVLSQEEMITEYTEKITAMEEELKSISELFADNKKELEECTTILQCKEKELEETQNHLQESKEQLAQESFVVSAFETTEKKLHGTANKLLSTVRETTRDVSGLHEKLDRKKAVDQHNFQVHENFAEQMDRRFSVIQRTVDDYSVKQQGMLDFYTNSIDDLLGASSSRLSATASAVAKSFASVQETVTKQVSHSVEEILKQETLSSQAKGDLQQLMAAHRTGLEEALRSDLLPVVTAVLDLNSHLSHCLQNFLIVADKIDSHKEDMNSFFTEHSRSLHKLRLDSSSALSSIQSEYESLKEDIATAQSMHSEGVNNLISSLQNQLNLLGMETQQQFSGFLSKGGKLQKSVGSLQQDLDLVSSEAIECISSHHKKLAEQSQDVAVEIRQLAGSNMSTLEESSKQCEKLTSSINTISQESQQWCESAGQKIDSVLEEQVCYLHSSKKHLQNLHKGVEDSCGSSVVEITDRVNAQRQAEEKALTSLVEQVRDDQEMVGEQRLELQEQVQSGLNKVHSYLKEELRNDVPTGTTPQRRDYAYPSLLVKTKPRDVLLEQFRQQQQEYLESISSVISEAVEPPVEQDSLEDEPPVAVNDSVISERSCIDLSMTCQEKGGIRFFQQKKALRKEKENRGNTTLLERSKIMDEVDQALTKSKLPLRMQN
modifications: phosphothreonine at 937 (degree of phosphorylation 87.9% per polypeptide chain)
For the molecule B1, in assay [2], the velocity in microtubule gliding assay (surface-adsorbed motor, 21°C) is 1.7 µm/min.

B2: Eg5_(T937A)-GFP (non-phosphorylatable mutant of Xenopus laevis Eg5 with C-terminal GFP) (natural protein)
chain: B1 chain with T937A
Consider B2, for which, in assay [3], the fold lower amount bound than wild-type Eg5-GFP, at endogenous concentration came out at 20 fold.

B3: Eg5_(T937A) (non-phosphorylatable mutant of full-length Xenopus laevis Eg5) (natural protein)
chain: B1 chain with T937A
As for B3, the velocity in microtubule gliding assay relative to wild-type Eg5, with or without Cdk1/cyclin B in assay [2] was determined as 88%.

B4: Eg5 (wild-type full-length Xenopus laevis Eg5), not phosphorylated (natural protein)
chain: B1 chain
The molecule B4 registered a velocity in microtubule gliding assay (surface-adsorbed motor, 21°C) in assay [2] of 1.8 µm/min.
